Source: the DeepSol protein solubility set

Experiment: soluble on expression in E. coli; label from the status in PepcDB or PDB records
For “MSFILPSESIDGTHPCNGLHMNGQDSLVQPLLTDFYQITMCYAYWKTGTHNEPAVFDVFFRKNPFQGEFTVFAGLEDCLRFVENFKFSQSDIDYVKKILPENAEPEFYEYLETLNGSHLTIEAVAEGSVVFPKVPLLTINGPLAMCQLIETSILNLVNYASLVATNAARFRQASGWKIQLLEFGLRRAQGPNGGLTASKYCYIGGFDATSNVLAGKLYGIPVKGTQAHSFICSFSSPAELKVRLLNHKITNEKADLFQISMEKRAWLLDQFSWKAALSEVSDGELSAFVAYAIAFPDTFLALIDTYDVIRSGVVNFVAVSLALHDLGYRSMGCRIDSGDLSYLSKELRECFVKVSTLKGEYKFFEKMSIVASNDINEETIMSLNDQQHEINAFGVGTHLVTCQKQPALGCVYKLVAQSAQPKIKLSQDVTKITIPGKKKCYRIFGKNGYAILDLMMLEDEPEPQPNQQILCRHPFEVESKRALVNANKIIKLHNVYWKDGEMITPLPTLNEIKEHVNESIRSTLRQDHRRYLNPTPYKVSVSERLYQFLHTLWLQNAPIGQLE”, the “soluble on expression in E. coli” value was “soluble”. For “MSFLGFTLVGKKIRWTEKSLANFKHRVRQLTGRSWGVSMEYRLEKLGQYLRGWFGYYGISQYYRPIPELDEWIRRRVRMCYWKQWRWARTKIRHLLDLGIPLKAAIQHGVSSLSYWRMARTPLEHHHHHH”, the “soluble on expression in E. coli” value was “soluble”. For “MSFNLSVIGAGLPVAQSTTTLIDALRTHRMAVVQAPPGTGKTTLVPPIAHNVTGGRVIVVAPRRVAVRAAAHHLVQLDQSSCDQPSTHRVGYTIRGERSRGDLVEFVTPGVLLRRLISNPELDGVSAVVVDEVHERQLDTDLVLGMLVELRELRDDLTVIAMSAT”, the “soluble on expression in E. coli” value was “not soluble”. With “MSFRLRIDDSVTADHVVCWGVTVALLKKSLFGSTPEERKRRVEEKISQAVVELGLEGLSDEFRVSMLSAWVRYYVFRVDAGEKTFVLNVLSPNSPVKSFRDILDPLRGLFEKFRENIAVPVAYTDEFMLQEWINGLPLSELRDGDVMRSDEKSRRIIEESIYLTARLLYRLWKEGFVYSPWEDYEAMYCDGKIVLLDVTRFEKKPSNESFLQHYYGAPFCPPDVLKDPKSPVNRLYFRGTSERDYFGVEREKYEELFLKGIRDECGSEQEFKILLGDCEAVERIKRV” the “soluble on expression in E. coli” value was “not soluble”. In the case of “MSFRTIEWRDDKVVMIDQTRLPGEEVYCEYADYKSVAEAIRGMVIRGAPAIGVAAAMGVALGAREIIADTYESFFRQMENVCDVMARTRPTAVNLFWAIERMKRVADENRDKPLDQLREILKTEAIRIEQEDLELCKAIGRHGAALIPEGATVLTHCNAGGLATAGYGTALGVIRAAHDAGKKIQVFADETRPWLQGARLTAWELMKDGIPVTLISDNMAGFFMKRGEIACCVVGADRIAANGDTANKIGTYSVAVLAKENNIPFYVAAPTTTLDLSLENGDQIPIEERHSREVTHLHGFPVAPEGIRVRNPAFDVTPARYISAIITEQGVVSGDYVTGLRGLVAPLEHHHHHH”, the “soluble on expression in E. coli” value is reported as “not soluble”. For “MSGAAADGIDDRDIPKQEFLDAAFNGDIDKIDGLLRDKKVHIDSVDDDQVTALHIAAAMGNNKLVVRLLDYGANIHAVNHLGMTAYHYAAREGKLAVLDTLMQRGASKNQTTALGVTALTLACAGGHADVVRRLIRISNETPRSKQSLAPTPLIVATCSKSPQICSYLADFRVNLDESMKNLGNLTALSMAIVCTPGVYMVRTLIDLGASVNKKGLGDKTAEELAIMLNRKDLIHFFNEKKSYRSRMNADSDVRKEIKNDHIIERELGAPAQNGVSPLMYATTVRSINSAKHLVLHRDSDVNMRDNLHITSLQIASLLRVDDIIPLLLQRRADVTVVNKYGSTAYDLFLLSCDFLEPGQLRGQLHCHRPIDSKSNLNSSSSNIYKALRSQGILTKVGSQIGINSAKIELIEPKHWLAAKTKYQPAKLRNNYKFASVEDILKSCKVAKRPETNECDNETEAIREYMEECQSFAVFCFSDFYGERENNKATIPDYYDKAQDNAKRYAYLRMDGLDKKNSGRQENVSKLIPVRPRKDSIEREYRKPRNIALVDSPSQSQMRTTPRMLKKRDTDYFSAQAGRARASSTSLQVPTVTVTRQRHVTSPVIEDMIWNHFVRRGKNELMRVLQAAEIDKHSFFSLQQKDLEAMNSYTPENMKLIEDIQTAILSRSL”, the “soluble on expression in E. coli” value was “not soluble”. For “MSGALDGVRVLDLSRVLAGPYATMILGDLGADVIKVEAPGGSDDTRFWGPPFQNGMSAYYTAVNRNKRSITVNLKSAEGQETIRRLAETADVLIHNFKTGTMEQWELGYESLSRLNPRLIYCSITGFGETGPLAPLAGYDYIIQAMSGWMSINGTADTGPLKVGVAVTDVFTGLYAAIAIEAALLAREKTGRGQKIDLALFDCAVSALVNVAANYLLSGDVPKPLGNEHPNIVPYSTYMASDGPIVIAVGNDRQFQALCSLLSDHSLGTDPRFQTNPGRVAHREELNRRLNEEIKRRTRAEWQRLLAEKGIPCGPVQTLDELFRHPQTAAREMTVTVHHPIVGPLTLVASPLKLSDTAVSYRLPPPLAGEHNGEVEAGWQGKPAAENGPHDKNQ”, the “soluble on expression in E. coli” value was “not soluble”. In the case of “MSGETTRLTEPQLRELAARGAAELDGATATDMLRWTDETFGDIGGAGGGVSGHRGWTTCNYVVASNMADAVLVDLAAKVRPGVPVIFLDTGYHFVETIGTRDAIESVYDVRVLNVTPEHTVAEQDELLGKDLFARNPHECCRLRKVVPLGKTLRGYSAWVTGLRRVDAPTRANAPLVSFDETFKLVKVNPLAAWTDQDVQEYIADNDVLVNPLVREGYPSIGCAPCTAKPAEGADPRSGRWQGLAKTECGLHAS”, the “soluble on expression in E. coli” value is reported as “soluble”. In the case of “MSGFKWSPDQKWISFLAVPTASWSADSNTLCLVRADGSRFEKVDQMLLNAQWFQWAPSKNILAYIEGSGRVALENKHLKVKELPALQQNIFTPKGYVDWDFVWKNDRVIIVSRAKEAGIETPPEKRPLPSLYEVDSTSNAQHQITKKTNKQGDYHPIFMKKSNQLIWIRSDRKKADVWLAHKDRKQEKKWIENIDVPAWYYEKWNWGNVISVKEELEHHHHHH”, the “soluble on expression in E. coli” value is reported as “not soluble”. In the case of “MSHAVSRLRQERLARSLKPFVARGSRMPRCEGCRLLPSYCMCAWRPRVEARAGMCLVMHDIEALKPTNTGWLIADTVADTFAFGWSRTEVDPRLLELLADPQWQPYLVFPGEYVAAERVVNEVAPLVEGKRPLFILLDATWTEARKMFRKSPYLEPFPVLSLLPEQLSRYRLRRSTRGEHLCTAEVAALCLELAGDEAAGEALGAYLEVFSERYLGAKRHIPLDEASPAHRALAPFRG”, the “soluble on expression in E. coli” value is reported as “not soluble”. In the case of “MSHELVELLRSVLKEELQPIHERLDRLEAGQQRLEERQQRLEERQQRLEERQQRLEEQQQRLGEKLDHFIIETRSHFKKIEDKLAGHRRMFDILPHDWRDTTMAIEYLKHKISQHDLEIYQLKKRLELQETK”, the “soluble on expression in E. coli” value is reported as “not soluble”. With “MSHIIDRRLNGKNKSAVNRERFLRRFKAQIKEAVSKAIKGRSITDIESGEKVSIPVKDISEPSFHHGKGGVWENVHPGNEEFVKGDRIPRPQGGAGGGGSKASQDGEGEDDFVFQLSREEFMNVFFDDLALPNLVKTQLMGIEEMKTVRAGYTNDGTPTNINIVRSPRGALARRVAMAAPTLSSIDEAEEELDTLIESDDDNALEVRDRRQRIHQMKERLASIPWIDPFDLRYNNRVKQPKPTSQAVMFCIMDVSGSMDEQKKDMAKRFFILLYMFLQRNYEKIEVVFIRHHTSAVEVNEQDFFHSRESGGTVVSSALNLMSDVIRKRYASSEWNIYAAQASDGDNWDSDSANCGRILEENLLPYCQYFAYIEITEGEPQNLWYEYLKVKAQCPQFAMQKIRSASDIYPVFRELFKRQPANGRVSALEHHHHHH” the “soluble on expression in E. coli” value was “soluble”. In the case of “MSHTILLLQPTDNIESRSWSDYENTTECLEGICRVYEEYLKKKVPAQNEITYDISHLFEFIDDLKDLSMLVLDNTTYTYVPHNKQYVKESIYKLMNNRLNNQH”, the “soluble on expression in E. coli” value is reported as “not soluble”. For “MSHVFQIHSSQYKSPSQIPQGKVLVVGGGNSGMQIAVEFAKTHEVTMSISHPLTFLPLHFFRKSIFNWLEKLGLLYAEVSTKRGKWFQKRKDPIFGFEGKELIRNGAIQLQEKVVSASENNIMFQNGETYSAESIIWSTGFIQNYNWIEIEKVVNENGLPNHIKGISPVRGLYYIGLEHHHHHH”, the “soluble on expression in E. coli” value was “soluble”. With “MSHVSLQEFLKTEPDGTLEVVAEQYNTTLLEVVRNLPSSTVVPGDKFDTVWDTVCEWGNVTTLVHTADVILEFSGELPSGFHRHGYFNLRGKHGMSGHIKAENCTHIALIERKFMGMDTASILFFNKEGSAMLKIFLGRDDHRQLLSEQVSAFHTLAASLKEHA” the “soluble on expression in E. coli” value was “soluble”. With “MSIATTPLHTALSLPQIQSFAASDMAAIDTLIHDRLTSDIVLINQIADHIICSGGKRLRPMLTMLAGHAIGPTGPHHHQLAAIIEFIHTATLLHDDVVDGSELRRSRSTANALWGNAPSVLVGDFLYSRSFQLMTELANLEVMQILAETTNRISEGEVLQLLHVHNPDTDETTYLSVIERKTAILFAAAAQLGALASHADTQTQTRMYEYGMQLGYAFQITDDVLDYTANNSQLGKNLGDDLAEGKATLPVIHAMTHSDAATCERLRMIISKGDSDAMPEVLNAIRTTGSLDYSRQRASAYAATAERALDGLPETEAVAALRGLARYAVQRTY” the “soluble on expression in E. coli” value was “not soluble”. In the case of “MSIAVTTTDPTNTGVSTTSSSSLTGSNAADLQSSFLTLLVAQLKNQDPTNPMENNELTSQLAQISTVSGIEKLNTTLGSISGQIDNSQSLQASNLIGHGVMIPGTTVLAGTGSEEGAVTTTTPFGVELQQAADKVTATITDKNGAVVRTIDIGELTAGVHSFTWDGTLTDGSTATNGSYNVAISASNGGTQLVAQPLQFALVQGVIRGNNGNTLDLGTYGTTILDEVRQII”, the “soluble on expression in E. coli” value is reported as “soluble”. With “MSIEQYFQHLACAPTSLNLIWFTVEMSELAKELPSKEAKTGLIKSIAHILHDEKFEKIRGDEAMLNLFEMLAKCSTKIGGAEVYKQAYGLDLFNYYKEFYFQWAHECGKIKSVSQFRTVFFLARSQLFYHLSPISIEKDFENIFQQYFGKLSMHHCLERTETLNKLFAGCSVEEFASAENVMSFGNSRELSGRSVDVRPNHRVLEVARGTMMSSSEISPNKSDSSVLLNKSPPTNSPIIKFGTYPKIHLQNVSSSMLNARRRQLTATVTTVDSQKGKPTFANETY” the “soluble on expression in E. coli” value was “not soluble”. For “MSIERSSPIPLYFQLAGELRAAIESGAYPPGSKLPTEGELCQQYDVSRSVVRQALQSLAHDNLIETERGRGAFVLERKVPIALVQQLDPLLESMAKAGFKLTTRVLKQERIKPPAHVAEQIGENDAVFLERLRYADGVVFLVVRNFLPYSRFPDLLQSKELEDVSLYQYLAKRYNAVATTGKRQVELARINEEAIAAQLHVEMNSYVLFNREVTYDQNKQVLEYYESWHHPDRTRLTIDLHRTY”, the “soluble on expression in E. coli” value was “not soluble”. In the case of “MSIFDHYQSRYEAAKDEEMSLQEFLALCKDDKSAYANAAERLLMAIGEPEIIDTAKDPRLSRIFSNRVISRYETFKDFYGMEDAIEQIVSYLKHAAQGLEERKQILYLLGPVGGGKSSLAEKLKSLMEAMPIYVLSANGERSPVNDHPFCLFKATEDGEILKTDYGIEQRYLRSIMSPWAAKRLHEFGGDITKFKVMKVRPSILDQIGIAKTEPGDENNQDISSLVGKVDIRKLEHYSQDDPDAYSYSGALCKANQGLMEFVEMFKAPIKVLHPLLTATQEGNFNGTEGLSAIPFDGMILAHSNESEWQTFRNNKNNEAFLDRVYIVKVPYCLRVSEEVKIYQKLLENSELSQAPCSPSTLETLAQFSILSRLKEPENSS”, the “soluble on expression in E. coli” value is reported as “not soluble”. For “MSIIFAKLLLIILSYTHMKEKARNVYMVAGGVTKFAKASPEMDFRLRVKKAFDYAMNDAGLTLADIDGSVASYFSDHFQRQLMSGIMVQDYLGLVPKPSKRIEGGGATGGLAFQAGYEEIASGRMDTVAVYGFETMSHVNTWKGNEFIALASDTNFDYPIGGFYTGYYAMMAVRHMYEFGTTVEQLAKVSVKNHGNALHNPYAQSPMKLTVEDVRNAPMVSYPLTRLDVCAMSDGAAVAILASEDKAFEITDHPVLIKGIGTGTDSMRLADRPFGDVPLLPNEKPSDYKDLKYPGVHSFRAGRMAAKEAYEMAGITDPLNELDLIELHDAYTSSEIQTYEDLGLCKYGEGGQFIDEGKPELHGKIPVNPSGGLLAAGHPVGATGIMQAVFMFWQLQHTIKKHFHDDYLQVPNAKRGLIHSHAGTGTYVTVTIMEAAK”, the “soluble on expression in E. coli” value was “not soluble”.
